From article doi:10.1101/2020.04.28.064113 (bioRxiv, 2020)

Target: Ubiquitin (wild-type), 15N isotopically labelled (UniProt P0CG47 1-76)
Assay: NMR titration

B1: stapled Cys-Ubq3-Cys peptide (stapled xenonucleus) (peptide)
peptide: CMQIFVKTLTGKTITLEVC
modifications: disulphide bridge between the two terminal cysteines
- binding result: binds
